PMC12742849 (Protein & Cell, 2025)

Assays:
[1] = target: enolase, native, from Francisella novicida (Francisella novicida); assay: cryo-EM structure
[2] = target: riboflavin biosynthesis protein D (RibD), native, from Francisella novicida (Francisella novicida); assay: cryo-EM structure

Substance | stoichiometry N [1] | stoichiometry N [2]
enolase, native, from Francisella novicida (enzyme) | 2 | –
riboflavin biosynthesis protein D (RibD), native, from Francisella novicida (enzyme) | – | 2
